The text below walks through data of PMC3032881.

The target in experiment [1] is HLA A*0201 on the surface of TAP deficient T2 cells (human (endogenous in T2 cells)). The experiment in a line: flow cytometry on cells; T2-binding assay: TAP deficient T2 cells with peptide at 100, 50, 10 and 1 μM in AIM-V, 10 min 37 °C, room temperature overnight, 2 h 37 °C; surface HLA A*0201 stained with anti-human HLA A*0201:RPE; MFI fitted (log(agonist) vs. response) to logEC50. A general note: In flow cytometry, cells or beads pass a laser one at a time.

For experiment [2], the target named is soluble recombinant HLA A*0201 (α chain tagged with a biotinylation sequence, with β2m). Kind of experiment: SPR; real time pMHC stability assay, BIAcore 3000, CM5 chip; ~500 RU of biotinylated refolded pMHCI immobilised on streptavidin; flow 10 μl/min for 15,000 s; Langmuir dissociation analysis converted to half-life. A general note: SPR reads the build-up and loss of mass on a sensor chip optically.

By half-life is commonly meant how long it takes for the measured level to halve. The term koff denotes the first-order rate constant of dissociation.

With NY-ESO-1 157-165 peptide …, in experiment [1], the LogEC50 was -3.53 M. In experiment [2], the half-life came to 8.9 h and the koff was 2.2e-05 s⁻¹.
The corresponding values for PSA 178-187 peptide … are -4.3 M, 16.9 h and 1.1e-05 s⁻¹.
